Results reported in paper PMC3936715, “Structural and functional analysis of the three MIF4G domains of nonsense-mediated decay factor UPF2” (Nucleic Acids Research, 2013).

B1: UPF2 (121–1227), all three MIF4G domains and the UPF1 binding domain (domain or fragment, human, UniProt Q9HAU5 121-1227, looked up)
chain: MKEKEESIQLHQEAWERHHLRKELRSKNQNAPDSRPEENFFSRLDSSLKKNTAFVKKLKTITEQQRDSLSHDFNGLNLSKYIAEAVASIVEAKLKISDVNCAVHLCSLFHQRYADFAPSLLQVWKKHFEARKEEKTPNITKLRTDLRFIAELTIVGIFTDKEGLSLIYEQLKNIINADRESHTHVSVVISFCRHCGDDIAGLVPRKVKSAAEKFNLSFPPSEIISPEKQQPFQNLLKEYFTSLTKHLKRDHRELQNTERQNRRILHSKGELSEDRHKQYEEFAMSYQKLLANSQSLADLLDENMPDLPQDKPTPEEHGPGIDIFTPGKPGEYDLEGGIWEDEDARNFYENLIDLKAFVPAILFKDNEKSCQNKESNKDDTKEAKESKENKEVSSPDDLELELENLEINDDTLELEGGDEAEDLTKKLLDEQEQEDEEASTGSHLKLIVDAFLQQLPNCVNRDLIDKAAMDFCMNMNTKANRKKLVRALFIVPRQRLDLLPFYARLVATLHPCMSDVAEDLCSMLRGDFRFHVRKKDQINIETKNKTVRFIGELTKFKMFTKNDTLHCLKMLLSDFSHHHIEMACTLLETCGRFLFRSPESHLRTSVLLEQMMRKKQAMHLDARYVTMVENAYYYCNPPPAEKTVKKKRPPLQEYVRKLLYKDLSKVTTEKVLRQMRKLPWQDQEVKDYVICCMINIWNVKYNSIHCVANLLAGLVLYQEDVGIHVVDGVLEDIRLGMEVNQPKFNQRRISSAKFLGELYNYRMVESAVIFRTLYSFTSFGVNPDGSPSSLDPPEHLFRIRLVCTILDTCGQYFDRGSSKRKLDCFLVYFQRYVWWKKSLEVWTKDHPFPIDIDYMISDTLELLRPKIKLCNSLEESIRQVQDLEREFLIKLGLVNDKDSKDSMTEGENLEEDEEEEEGGAETEEQSGNESEVNEPEEEEGSDNDDDEGEEEEEENTDYLTDSNKENETDEENTEVMIKGGGLKHVPCVEDEDFIQALDKMMLENLQQRSGESVKVHQLDVAIPLHLKSQLRKGPPLGGGEGEAESADTMPFVMLTRKGNKQQFKILNVPMSSQLAANHWNQQQAEQEERMRMKKLTLDINERQEQED
notes: UPF2, human, Q9HAU5, residues 121-1227; the host of this construct is told only in the Supplementary Material
B2: UPF3b RRM domain (residues 42–143) (domain or fragment, UniProt Q9BZI7 42-143, looked up)
chain: RNKEKKEALSKVVIRRLPPTLTKEQLQEHLQPMPEHDYFEFFSNDTSLYPHMYARAYINFKNQEDIILFRDRFDGYVFLDNKGQEYPAIVEFAPFQKAAKKK
notes: UPF3b, RRM domain, residues 42-143; also called UPF3b RNP domain
B3: UPF2 MIF4G-3 domain (residues 761–1054) (domain or fragment, human, UniProt Q9HAU5 761-1054, looked up)
chain: EKTVKKKRPPLQEYVRKLLYKDLSKVTTEKVLRQMRKLPWQDQEVKDYVICCMINIWNVKYNSIHCVANLLAGLVLYQEDVGIHVVDGVLEDIRLGMEVNQPKFNQRRISSAKFLGELYNYRMVESAVIFRTLYSFTSFGVNPDGSPSSLDPPEHLFRIRLVCTILDTCGQYFDRGSSKRKLDCFLVYFQRYVWWKKSLEVWTKDHPFPIDIDYMISDTLELLRPKIKLCNSLEESIRQVQDLEREFLIKLGLVNDKDSKDSMTEGENLEEDEEEEEGGAETEEQSGNESEVNE
notes: UPF2, human, Q9HAU5, MIF4G-3 construct, residues 761-1054; Limits are printed for the construct 'which we used as substrate in our assays'; also called MIF4G domain 3
B4: preformed UPF2 MIF4G-3/UPF3b complex (complex)
chain 1: B3 chain
chain 2: B2 chain
notes: UPF2, human, Q9HAU5, MIF4G-3 construct, residues 761-1054; UPF3b, RRM domain, residues 42-143; also called UPF2 MIF4G-3 in complex with UPF3b; UPF2/UPF3b

Assays:
[1] = target: T1, SMG1 (full-length recombinant, wild-type, N-terminal SBP-tag) (UniProt Q96Q15 1-3661); test: SPR; SMG1 immobilised via its N-terminal SBP-tag on a streptavidin (SA) chip, ~2000 RU, BIAcore 3000; analyte titrated at 25 µl/min; apparent KD from RUmax against concentration, one binding site model; settings: both partners purified
T1 construct: SMG1, serine/threonine-protein kinase of the PIKK family, about 415 kDa, full-length, wild type; also called SMG1 kinase; wild-type SMG1; source: recombinant, purified; not shown: SBP, N-terminal, kept
T1 sequence (Q96Q15 whole entry): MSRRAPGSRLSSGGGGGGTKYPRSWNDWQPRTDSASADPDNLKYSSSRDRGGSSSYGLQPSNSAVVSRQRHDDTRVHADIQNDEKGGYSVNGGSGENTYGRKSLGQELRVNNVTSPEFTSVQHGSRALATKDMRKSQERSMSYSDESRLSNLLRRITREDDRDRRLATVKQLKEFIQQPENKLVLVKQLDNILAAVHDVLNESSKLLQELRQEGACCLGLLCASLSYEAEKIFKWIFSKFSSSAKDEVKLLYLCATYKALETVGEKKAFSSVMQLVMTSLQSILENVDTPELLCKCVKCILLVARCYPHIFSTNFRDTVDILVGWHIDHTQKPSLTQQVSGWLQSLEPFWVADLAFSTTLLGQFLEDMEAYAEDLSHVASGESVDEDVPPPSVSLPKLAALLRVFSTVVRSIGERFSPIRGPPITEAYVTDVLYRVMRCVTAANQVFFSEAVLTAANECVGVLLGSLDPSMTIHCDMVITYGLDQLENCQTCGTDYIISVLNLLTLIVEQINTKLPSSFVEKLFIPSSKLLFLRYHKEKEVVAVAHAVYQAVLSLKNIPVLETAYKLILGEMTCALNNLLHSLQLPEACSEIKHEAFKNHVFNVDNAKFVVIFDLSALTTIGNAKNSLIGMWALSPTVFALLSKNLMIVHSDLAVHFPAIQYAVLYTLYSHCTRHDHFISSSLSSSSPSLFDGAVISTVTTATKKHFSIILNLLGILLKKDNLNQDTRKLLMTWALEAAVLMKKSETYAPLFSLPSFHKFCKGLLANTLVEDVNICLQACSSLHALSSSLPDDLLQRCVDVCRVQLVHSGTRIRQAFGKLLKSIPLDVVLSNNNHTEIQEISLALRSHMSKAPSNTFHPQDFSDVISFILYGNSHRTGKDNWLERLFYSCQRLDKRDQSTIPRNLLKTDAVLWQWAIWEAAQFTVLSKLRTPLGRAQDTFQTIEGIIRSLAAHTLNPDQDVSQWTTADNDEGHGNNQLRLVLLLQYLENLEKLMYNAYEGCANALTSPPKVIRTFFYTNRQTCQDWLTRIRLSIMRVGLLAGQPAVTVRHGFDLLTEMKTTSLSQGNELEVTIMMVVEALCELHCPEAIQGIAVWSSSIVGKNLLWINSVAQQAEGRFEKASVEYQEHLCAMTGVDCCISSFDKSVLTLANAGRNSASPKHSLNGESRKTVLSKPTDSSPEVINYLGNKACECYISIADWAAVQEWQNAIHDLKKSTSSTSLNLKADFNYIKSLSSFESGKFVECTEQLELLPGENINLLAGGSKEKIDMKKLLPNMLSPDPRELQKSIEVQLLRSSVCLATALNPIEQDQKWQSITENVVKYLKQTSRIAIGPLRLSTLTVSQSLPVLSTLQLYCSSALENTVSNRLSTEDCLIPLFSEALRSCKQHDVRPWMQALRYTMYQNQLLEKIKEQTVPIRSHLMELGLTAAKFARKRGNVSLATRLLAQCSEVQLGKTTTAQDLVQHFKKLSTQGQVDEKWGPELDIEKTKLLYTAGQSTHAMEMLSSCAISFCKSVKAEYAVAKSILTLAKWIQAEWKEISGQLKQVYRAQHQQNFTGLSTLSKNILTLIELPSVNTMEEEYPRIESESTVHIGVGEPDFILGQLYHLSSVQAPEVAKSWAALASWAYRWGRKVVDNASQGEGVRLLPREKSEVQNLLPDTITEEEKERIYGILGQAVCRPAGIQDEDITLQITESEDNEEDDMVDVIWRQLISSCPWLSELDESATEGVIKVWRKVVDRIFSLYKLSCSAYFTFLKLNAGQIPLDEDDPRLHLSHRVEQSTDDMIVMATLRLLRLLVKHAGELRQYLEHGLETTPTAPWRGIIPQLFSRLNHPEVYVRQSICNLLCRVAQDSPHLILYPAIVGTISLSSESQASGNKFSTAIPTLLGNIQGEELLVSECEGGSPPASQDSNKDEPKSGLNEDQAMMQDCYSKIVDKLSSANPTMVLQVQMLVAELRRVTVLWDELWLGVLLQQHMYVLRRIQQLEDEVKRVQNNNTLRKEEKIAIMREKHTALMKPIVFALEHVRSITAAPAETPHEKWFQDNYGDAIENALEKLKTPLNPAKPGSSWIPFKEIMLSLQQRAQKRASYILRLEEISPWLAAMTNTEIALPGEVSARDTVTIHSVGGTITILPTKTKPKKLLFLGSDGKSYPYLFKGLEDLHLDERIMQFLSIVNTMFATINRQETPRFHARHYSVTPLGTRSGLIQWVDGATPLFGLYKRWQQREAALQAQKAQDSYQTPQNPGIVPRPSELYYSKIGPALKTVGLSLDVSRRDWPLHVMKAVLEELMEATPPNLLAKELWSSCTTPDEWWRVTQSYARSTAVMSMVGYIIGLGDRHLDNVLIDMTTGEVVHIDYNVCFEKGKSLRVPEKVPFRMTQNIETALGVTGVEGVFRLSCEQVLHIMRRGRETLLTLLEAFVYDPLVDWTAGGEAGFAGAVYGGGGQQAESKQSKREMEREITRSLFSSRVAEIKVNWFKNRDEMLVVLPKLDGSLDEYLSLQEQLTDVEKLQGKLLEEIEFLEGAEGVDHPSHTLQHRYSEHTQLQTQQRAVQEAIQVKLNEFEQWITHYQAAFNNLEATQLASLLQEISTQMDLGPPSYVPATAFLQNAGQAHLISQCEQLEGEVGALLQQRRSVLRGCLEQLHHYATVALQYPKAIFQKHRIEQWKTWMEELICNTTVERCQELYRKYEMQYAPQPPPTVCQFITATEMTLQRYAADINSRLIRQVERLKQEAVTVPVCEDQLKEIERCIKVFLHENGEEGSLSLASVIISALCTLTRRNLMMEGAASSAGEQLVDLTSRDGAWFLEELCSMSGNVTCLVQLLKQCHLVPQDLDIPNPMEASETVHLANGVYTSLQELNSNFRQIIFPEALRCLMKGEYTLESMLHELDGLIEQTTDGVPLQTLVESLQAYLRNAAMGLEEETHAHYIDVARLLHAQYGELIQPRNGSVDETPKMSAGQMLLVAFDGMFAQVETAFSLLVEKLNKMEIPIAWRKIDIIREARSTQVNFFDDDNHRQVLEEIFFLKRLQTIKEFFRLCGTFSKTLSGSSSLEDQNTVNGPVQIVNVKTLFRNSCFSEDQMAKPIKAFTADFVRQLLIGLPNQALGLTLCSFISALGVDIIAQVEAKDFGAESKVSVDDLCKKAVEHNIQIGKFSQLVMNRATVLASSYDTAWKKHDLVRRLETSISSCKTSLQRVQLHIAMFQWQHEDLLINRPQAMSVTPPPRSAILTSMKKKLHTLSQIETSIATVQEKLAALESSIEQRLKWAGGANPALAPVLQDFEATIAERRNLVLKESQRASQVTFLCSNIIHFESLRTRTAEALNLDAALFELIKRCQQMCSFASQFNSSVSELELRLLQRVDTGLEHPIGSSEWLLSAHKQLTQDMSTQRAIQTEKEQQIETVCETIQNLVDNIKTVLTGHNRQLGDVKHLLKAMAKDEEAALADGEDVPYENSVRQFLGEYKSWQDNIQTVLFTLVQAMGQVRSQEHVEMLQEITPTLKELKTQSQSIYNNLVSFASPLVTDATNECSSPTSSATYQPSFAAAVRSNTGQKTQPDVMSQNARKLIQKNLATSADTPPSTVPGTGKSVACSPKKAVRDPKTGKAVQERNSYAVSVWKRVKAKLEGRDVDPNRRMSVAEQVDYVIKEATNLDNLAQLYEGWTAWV

[2] = target: B3; test: SPR; competition: SMG1 immobilised; MIF4G-3 at constant 50 nM injected with 0, 50, 250, 500 nM UPF3b RRM domain; settings: both partners purified

| Binder | Kd [1] | binding result [2] |
| --- | --- | --- |
| B1 | 37 ± 5 nM |  |
| B2 |  | binds |
| B3 | 60 ± 5 nM |  |
| B4 | 34 ± 2 nM |  |
